Test results reported in patent US20160102121A1 (UNIVERSITY OF NORTH CAROLINA AT CHAPEL HILL, published 2016).
Where no end group is shown, it is not given here. [ ]: non-standard residue; d: D form. Nle = CCCC[C@H](N)C(=O)O

Target: epithelial Na+ channel (ENaC) on human bronchial epithelial cultures (human, UniProt P37088 1-669; P51168 1-640; P51170 1-649)
Assay: cell-based or functional assay

epithelial Na+ channel (ENaC) on human bronchial epithelial cultures, sequence (P37088 whole entry, chain 1 of 3): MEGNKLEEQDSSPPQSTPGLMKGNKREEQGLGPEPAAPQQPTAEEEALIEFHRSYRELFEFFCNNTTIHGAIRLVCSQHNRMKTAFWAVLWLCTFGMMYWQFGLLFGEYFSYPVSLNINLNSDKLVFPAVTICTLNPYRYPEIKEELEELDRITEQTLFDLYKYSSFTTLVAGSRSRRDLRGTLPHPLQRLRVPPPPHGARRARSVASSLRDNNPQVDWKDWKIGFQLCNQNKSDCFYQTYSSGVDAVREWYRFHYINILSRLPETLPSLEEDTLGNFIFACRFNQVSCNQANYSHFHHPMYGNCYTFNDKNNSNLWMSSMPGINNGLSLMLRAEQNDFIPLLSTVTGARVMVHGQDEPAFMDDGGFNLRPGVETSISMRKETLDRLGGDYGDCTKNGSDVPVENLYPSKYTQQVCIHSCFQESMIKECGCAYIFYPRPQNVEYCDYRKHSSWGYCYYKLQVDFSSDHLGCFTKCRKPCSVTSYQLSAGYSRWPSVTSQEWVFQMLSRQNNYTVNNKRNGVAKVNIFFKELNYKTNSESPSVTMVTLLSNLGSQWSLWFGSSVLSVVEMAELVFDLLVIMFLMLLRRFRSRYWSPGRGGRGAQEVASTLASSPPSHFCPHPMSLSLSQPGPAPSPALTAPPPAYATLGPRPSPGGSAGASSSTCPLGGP
epithelial Na+ channel (ENaC) on human bronchial epithelial cultures, sequence (P51168 whole entry, chain 2 of 3): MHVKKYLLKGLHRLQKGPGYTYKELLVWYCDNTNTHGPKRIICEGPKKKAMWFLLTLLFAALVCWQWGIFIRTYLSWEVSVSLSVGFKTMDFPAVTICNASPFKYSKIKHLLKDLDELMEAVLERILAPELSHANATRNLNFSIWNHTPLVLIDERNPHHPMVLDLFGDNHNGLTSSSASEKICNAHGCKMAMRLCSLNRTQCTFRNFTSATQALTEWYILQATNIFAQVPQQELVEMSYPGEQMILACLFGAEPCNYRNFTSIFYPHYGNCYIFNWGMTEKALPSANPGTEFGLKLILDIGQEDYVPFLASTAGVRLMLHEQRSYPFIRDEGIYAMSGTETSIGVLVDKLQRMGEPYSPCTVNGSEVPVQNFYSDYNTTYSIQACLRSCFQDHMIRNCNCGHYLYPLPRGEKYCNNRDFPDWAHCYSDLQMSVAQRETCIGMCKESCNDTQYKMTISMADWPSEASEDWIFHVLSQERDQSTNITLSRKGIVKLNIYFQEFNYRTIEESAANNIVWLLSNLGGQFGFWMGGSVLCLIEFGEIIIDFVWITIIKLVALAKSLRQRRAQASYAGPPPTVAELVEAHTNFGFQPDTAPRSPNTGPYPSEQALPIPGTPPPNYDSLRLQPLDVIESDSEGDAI
epithelial Na+ channel (ENaC) on human bronchial epithelial cultures, sequence (P51170 whole entry, chain 3 of 3): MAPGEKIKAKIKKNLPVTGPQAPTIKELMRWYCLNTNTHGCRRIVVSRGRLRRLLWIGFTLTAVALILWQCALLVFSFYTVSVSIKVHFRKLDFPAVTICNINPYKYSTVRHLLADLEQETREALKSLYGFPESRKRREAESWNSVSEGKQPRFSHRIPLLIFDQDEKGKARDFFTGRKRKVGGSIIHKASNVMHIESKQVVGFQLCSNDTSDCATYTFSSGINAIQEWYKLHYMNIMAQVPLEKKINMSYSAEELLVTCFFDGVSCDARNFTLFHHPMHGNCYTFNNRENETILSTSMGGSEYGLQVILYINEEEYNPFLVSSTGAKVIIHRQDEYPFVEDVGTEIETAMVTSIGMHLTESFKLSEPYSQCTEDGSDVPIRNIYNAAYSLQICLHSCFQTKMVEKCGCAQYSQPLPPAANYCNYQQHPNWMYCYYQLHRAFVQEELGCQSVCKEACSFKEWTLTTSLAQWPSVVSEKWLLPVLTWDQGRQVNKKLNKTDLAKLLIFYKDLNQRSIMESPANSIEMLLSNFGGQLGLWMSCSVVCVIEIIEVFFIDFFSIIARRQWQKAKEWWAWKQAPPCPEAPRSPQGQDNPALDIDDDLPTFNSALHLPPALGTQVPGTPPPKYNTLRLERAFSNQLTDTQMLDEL

[dA][dA]LP[Nle]PLDQT[dA][dA] [aaLPNlePLDQTaa (SEQ ID NO:5)]
IC50, dose response on airway cells (ASL height): 30 nM
